The target in one test is T1, cynomolgus monkey NaPi2b (cynomolgus monkey, UniProt O95436 1-690 (human entry)).
T1 construct: also called Cyno NaPi2b; Cy NaPi2b
T1 chain: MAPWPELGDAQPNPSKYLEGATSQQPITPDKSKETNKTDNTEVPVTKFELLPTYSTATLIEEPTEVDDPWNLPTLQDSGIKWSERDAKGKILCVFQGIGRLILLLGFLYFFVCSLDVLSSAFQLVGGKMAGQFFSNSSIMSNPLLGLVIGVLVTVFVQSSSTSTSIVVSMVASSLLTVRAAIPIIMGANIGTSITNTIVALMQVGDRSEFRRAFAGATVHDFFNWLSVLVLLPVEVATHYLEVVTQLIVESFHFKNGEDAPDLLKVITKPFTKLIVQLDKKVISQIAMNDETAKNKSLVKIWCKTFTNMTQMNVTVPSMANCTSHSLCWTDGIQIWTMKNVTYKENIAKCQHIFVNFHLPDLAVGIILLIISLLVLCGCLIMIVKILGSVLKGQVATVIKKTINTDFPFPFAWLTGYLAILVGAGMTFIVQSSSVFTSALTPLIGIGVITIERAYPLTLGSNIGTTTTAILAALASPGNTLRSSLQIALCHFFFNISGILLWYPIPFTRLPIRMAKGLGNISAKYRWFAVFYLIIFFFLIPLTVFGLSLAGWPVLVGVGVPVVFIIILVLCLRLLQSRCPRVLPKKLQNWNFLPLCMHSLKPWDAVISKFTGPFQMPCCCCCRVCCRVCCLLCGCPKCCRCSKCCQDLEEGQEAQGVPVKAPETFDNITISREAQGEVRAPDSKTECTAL
Description: flow cytometry on HEK293-6e cells transfected with cynomolgus monkey NaPi2b, 24 h at 4 C, anti-human IgG Fc AF647. In general terms: Flow cytometry measures light scatter and fluorescence of single cells or particles in a stream.

Another test has as its target T2, mouse NaPi2b (mouse, UniProt Q9DBP0 1-697).
T2 construct: also called Ms NaPi2b; CL #13476
T2 sequence: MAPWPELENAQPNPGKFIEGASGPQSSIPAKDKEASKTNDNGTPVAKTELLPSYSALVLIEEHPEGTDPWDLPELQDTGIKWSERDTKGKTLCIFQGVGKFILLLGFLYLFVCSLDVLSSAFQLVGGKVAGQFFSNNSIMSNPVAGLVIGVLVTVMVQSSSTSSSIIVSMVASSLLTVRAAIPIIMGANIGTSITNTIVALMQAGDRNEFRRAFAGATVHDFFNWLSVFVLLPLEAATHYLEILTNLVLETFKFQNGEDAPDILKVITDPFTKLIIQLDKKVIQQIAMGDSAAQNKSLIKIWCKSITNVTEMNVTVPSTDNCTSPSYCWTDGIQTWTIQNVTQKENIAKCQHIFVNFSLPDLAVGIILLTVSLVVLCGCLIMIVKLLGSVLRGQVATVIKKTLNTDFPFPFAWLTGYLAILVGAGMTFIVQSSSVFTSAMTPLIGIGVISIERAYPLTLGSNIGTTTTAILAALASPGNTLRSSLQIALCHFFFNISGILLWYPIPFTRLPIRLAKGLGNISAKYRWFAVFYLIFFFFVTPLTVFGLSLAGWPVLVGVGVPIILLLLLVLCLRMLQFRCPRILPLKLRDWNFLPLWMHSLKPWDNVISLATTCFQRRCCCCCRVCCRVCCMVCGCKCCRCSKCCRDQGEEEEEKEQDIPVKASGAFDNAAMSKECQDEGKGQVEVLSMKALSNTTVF
Description: flow cytometry on HEK293-6e cells transfected with mouse NaPi2b, 24 h at 4 C, anti-human IgG Fc AF647.

In test [1] the target is T3, human sodium-dependent phosphate transporter 2B (NaPi2b) (human, UniProt O95436 1-690).
T3 construct: UniProt ID is given as 095436 [sic]; also called hNaPi2b; Hu NaPi2b
T3 sequence: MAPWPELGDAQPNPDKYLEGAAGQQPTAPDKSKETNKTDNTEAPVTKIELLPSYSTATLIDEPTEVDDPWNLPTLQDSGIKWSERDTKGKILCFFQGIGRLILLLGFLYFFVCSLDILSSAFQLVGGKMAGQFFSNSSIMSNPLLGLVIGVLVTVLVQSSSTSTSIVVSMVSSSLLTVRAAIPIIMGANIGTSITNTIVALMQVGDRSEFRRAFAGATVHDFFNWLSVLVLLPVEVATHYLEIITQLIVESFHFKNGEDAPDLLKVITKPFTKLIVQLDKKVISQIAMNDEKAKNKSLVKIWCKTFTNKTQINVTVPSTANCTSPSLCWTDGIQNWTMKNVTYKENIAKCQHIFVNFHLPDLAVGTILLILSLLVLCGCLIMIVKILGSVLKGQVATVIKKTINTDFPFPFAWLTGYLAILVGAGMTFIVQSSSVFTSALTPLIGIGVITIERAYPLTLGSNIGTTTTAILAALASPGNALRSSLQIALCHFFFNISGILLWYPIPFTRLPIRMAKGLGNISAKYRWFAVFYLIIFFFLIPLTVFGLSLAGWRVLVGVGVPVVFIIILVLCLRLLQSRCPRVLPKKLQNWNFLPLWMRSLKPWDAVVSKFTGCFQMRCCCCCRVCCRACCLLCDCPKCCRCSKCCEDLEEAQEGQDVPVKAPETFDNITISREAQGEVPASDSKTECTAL
Put plainly: flow cytometry on OVCAR-3 cells (endogenous NaPi2b), 24 h at 4 C, anti-human IgG Fc AF647.
Description: (§1) Following incubation and washing, fluorescence was detected by flow cytometry on a BD LSRFortessa™ Cell Analyzer (BD Biosciences, Franklin Lake, NJ) with 1,000 minimum events collected per well.

Test [2] has as its target T3, human sodium-dependent phosphate …. Description: flow cytometry on IGROV-1 cells (endogenous NaPi2b), 24 h at 4 C, anti-human IgG Fc AF647.
Description: as §1
The next test concerns the target T4, Biotinylated human FcRn (human, UniProt P55899 24-297; P61769 21-119, limits assumed, biotinylated (site not stated)).
T4 construct: also called Biotinlated human FcRn; human neonatal fragment crystallizable receptor (FcRn)
Description: SPR (Biacore T200), biotinylated FcRn on neutravidin, antibody as analyte, pH 5.9, steady-state fit. For orientation: Surface plasmon resonance follows binding to a sensor surface in real time, without labels.

Test [3] has as its target T5, human FcγR I CD64 (Sino Biological Inc. 10256-H08H) (human, UniProt P12314 16-288).
T5 construct: Bought reagent
Description: SPR (Biacore T200), antibody captured on protein A, FcγR as analyte, multicycle, 1:1 fit.
Description: (§2) Approximately 400-600 RUs of each antibody (2 μg/mL) were captured on the protein A surface on flow cell 2, 3 and 4 by injecting at 10 μL/min for 60 s. Flow cell 1 was used as a reference surface. […] Each in-house FcγR with five concentrations were flowed as analyte using single-cycle kinetics strategy. The flow rate of FcγRs was 50 L/min with contact time of 40 sec and dissociation time of 120 sec. For the high affinity FcγRI CD64, multicycle kinetics were applied. The flow rate of the analyte was 100 L/min with contact time of 100 sec and dissociation time of 650 sec. Blank buffer control was injected using the same flow rate and contact time for each cycle. Surface regeneration was accomplished using 10 mM glycine-HCl, pH 1.5 (Cytiva©, BR100354) for 30 sec with a flow rate of 50 μL/min after each cycle. Binding constants and the maximum observed binding signal (Rmax) were determined using the Biacore™ T200 Evaluation software (version 3.0; GE Healthcare). For single-cycle kinetics, blank-subtracted sensorgrams were analyzed using steady state affinity fitting model. For multicycle kinetics, results were fit to the 1:1 Langmuir binding model.

Test [4] deals with T6, human FcγR IIA H131 CD32aH (v5774) (human, UniProt P12318 34-217, limits assumed).
T6 construct: In-house reagent
T6 sequence (looked up): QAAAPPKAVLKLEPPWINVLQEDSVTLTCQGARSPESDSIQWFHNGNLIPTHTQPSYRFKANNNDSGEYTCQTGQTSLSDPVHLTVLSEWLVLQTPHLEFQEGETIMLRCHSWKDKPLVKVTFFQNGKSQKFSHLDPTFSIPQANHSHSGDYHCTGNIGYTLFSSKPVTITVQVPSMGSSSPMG
Description: SPR (Biacore T200), antibody captured on protein A, FcγR as analyte, single-cycle, steady-state fit.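 Further: five FcγR concentrations per single cycle, 40 s association then 120 s dissociation, responses corrected against a reference flow cell and blank buffer injections.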
Description: as §2

Test [5] deals with T7, human FcγR IIA R131 CD32aR (v5775) (human, UniProt P12318 34-217, limits assumed).
T7 construct: In-house reagent
T7 sequence (looked up): T6 sequence (looked up) with H134R
Described as above.
Description: as §2

In test [6] the target is T8, human FcγR IIIA V159 CD16aV (v5773) (human, UniProt P08637 17-208, limits assumed).
T8 construct: In-house reagent
T8 sequence (P08637 17-208 F176V limits assumed): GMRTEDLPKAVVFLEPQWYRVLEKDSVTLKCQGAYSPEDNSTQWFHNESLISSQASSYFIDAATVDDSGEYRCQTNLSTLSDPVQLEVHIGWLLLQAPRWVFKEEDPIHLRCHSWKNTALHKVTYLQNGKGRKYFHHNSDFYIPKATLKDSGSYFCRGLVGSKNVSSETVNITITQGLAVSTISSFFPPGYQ
Described as above.
Description: as §2

Test [7] addresses T9, human FcγR IIB Y160 CD32bY (v5777) (human, UniProt P31994 43-217, limits assumed).
T9 construct: In-house reagent
T9 sequence (looked up): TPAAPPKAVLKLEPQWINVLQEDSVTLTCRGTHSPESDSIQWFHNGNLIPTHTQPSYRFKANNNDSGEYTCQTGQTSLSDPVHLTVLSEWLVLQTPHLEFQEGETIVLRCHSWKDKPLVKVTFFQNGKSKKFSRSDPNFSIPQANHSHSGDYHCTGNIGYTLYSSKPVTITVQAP
Described as above.
Description: as §2

For test [8], the target named is T3, human sodium-dependent phosphate …. Put plainly: flow cytometry on IGROV-1 cells (endogenous NaPi2b), 24 h at 4 C, anti-human IgG Fc AF647, APC-A GeoMean.
Description: (§3) Cells were maintained under standard culture conditions (37° C./5% CO₂) until assay set-up. […] Cells were removed from culture vessels using Cell Dissociation Buffer (Invitrogen, Waltham, MA), seeded at 50,000 cells/well in conical-bottom 96-well plates, and treated with test antibody or antibody-drug conjugate for 24 hours at 4° C. to prevent internalization. […] Following incubation and washing, fluorescence was detected by flow cytometry on a BD LSRFortessa™ Cell Analyzer (BD Biosciences, Franklin Lake, NJ) with 1,000 minimum events collected per well.
Test [9] has the same target. Put plainly: flow cytometry on H441 cells (endogenous NaPi2b), 24 h at 4 C, anti-human IgG Fc AF647, APC-A GeoMean.
Description: as §3
For test [10] the target is unchanged. Put plainly: flow cytometry on HCC-78 cells (endogenous NaPi2b), 24 h at 4 C, anti-human IgG Fc AF647, APC-A GeoMean.
Description: as §3
Test [11] has the same target. Put plainly: flow cytometry on IGROV-1 cells (endogenous NaPi2b), 24 h at 4 C, anti-human IgG Fc AF647. The source holds these as a separate data set.
Description: (§4) Briefly, cells were seeded at 50,000 cells/well in conical-bottom 96-well plates and treated with test antibody for 24 hours at 4° C. to prevent internalization. […] Following incubation and washing, fluorescence was detected by flow cytometry on a BD LSRFortessa™ Cell Analyzer (BD Biosciences, Franklin Lake, NJ) with 1,000 minimum events collected per well.
Test [12] concerns the target T10, KLH (Sigma-Aldrich, H8283).
T10 construct: Coating of the non-specific ELISA
Description: non-specific ELISA, KLH coated, antibody 100 nM. For orientation: In an ELISA, binding on a coated surface is turned into a signal by an enzyme label.
Description: NS-ELISA was used to measure the propensity of the antibodies to bind to a range of biomolecules to emulate the undesirable non-specific interactions to biological matrices in vivo as described below.
NS-ELISA was carried out in Corning® 96-well EIA/RIA Easy Wash™ Clear Flat Bottom Polystyrene High Bind Microplate coated overnight at 4° C. with 50 μL of Heparin (Sigma, H3149) diluted with 50 mM sodium carbonate pH 9.6 to a final concentration of 250 μg/mL. The plate was incubated for 2 days at room temperature, wells that were coated with heparin were not covered to allow air dry. […] 50 μL each of insulin, KLH, dsDNA and ssDNA were added to a 96 well plate, followed by the incubation at 37° C. for 2 h. The coating materials were removed, and the plate was blocked with 200 μL of Gibco™ PBS pH7.4, 0.1% Tween®20, and incubated for 1 h at room temperature with shaking at 200 rpm. The plate was washed 3 times with Gibco™ PBS pH7.4, 0.1% Tween 20. 50 μL of each mAb at 100 nM (15 mg/mL) in Gibco™ PBS pH 7.4, 0.1% Tween®20 was added in duplicate to the wells and incubated for 1 h at room temperature with shaking at 200 rpm. […] Plates were incubated for 1 h at room temperature, with shaking at 200 rpm. The plate was washed three times with Gibco™ PBS pH7.4, 0.1% Tween 20, and 100 μL of TMB substrate (Cell Signaling Technology©, 7004P6) added to each well. […] Binding scores were calculated as the ratio of the ELISA signal of the antibody to the signal of a well containing buffer instead of the primary antibody.

The target of test [13] is T3, human sodium-dependent phosphate …. Put plainly: flow cytometry, IGROV-1 cells (endogenous NaPi2b); apparent Kd.
Description: as §4
For test [14] the target is unchanged. Put plainly: flow cytometry, IGROV-1 cells (endogenous NaPi2b). Also noted: unit not given here.

The values below come from patent US20260232827A1 (Zymeworks, published 2026).

Changes are numbered by the printed parent chain.

T4 sequence (P55899 24-297 limits assumed, chain 1 of 2): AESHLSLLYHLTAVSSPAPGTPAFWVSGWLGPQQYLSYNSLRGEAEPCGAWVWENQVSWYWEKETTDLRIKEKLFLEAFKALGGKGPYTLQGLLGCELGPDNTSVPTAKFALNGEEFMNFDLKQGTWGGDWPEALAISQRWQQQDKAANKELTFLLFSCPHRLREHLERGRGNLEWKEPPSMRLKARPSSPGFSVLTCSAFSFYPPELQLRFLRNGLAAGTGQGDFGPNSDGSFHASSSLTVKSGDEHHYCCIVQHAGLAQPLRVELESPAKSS
T4 sequence (P61769 21-119 limits assumed, chain 2 of 2): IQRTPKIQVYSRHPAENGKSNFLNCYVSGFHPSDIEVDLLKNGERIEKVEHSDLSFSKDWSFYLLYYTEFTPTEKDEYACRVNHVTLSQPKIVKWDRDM
T5 sequence (P12314 16-288 limits assumed): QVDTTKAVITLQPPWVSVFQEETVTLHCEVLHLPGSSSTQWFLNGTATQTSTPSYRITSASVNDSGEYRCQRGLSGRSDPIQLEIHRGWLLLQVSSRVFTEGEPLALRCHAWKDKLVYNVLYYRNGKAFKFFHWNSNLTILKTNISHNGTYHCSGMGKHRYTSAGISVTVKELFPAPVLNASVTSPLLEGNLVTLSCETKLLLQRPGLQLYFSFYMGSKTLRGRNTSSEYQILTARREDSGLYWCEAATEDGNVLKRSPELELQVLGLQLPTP
Description for Biotinylated human FcRn: Neutravidin with concentration of g/mL was injected into flow cell 1 to 4 targeting at 2000 RU with a flow rate of 10 L/min for immobilization. The reaction was inactivated with 1 M Ethanolamine-HCl pH8.5 (Cytiva©, BR100050), following with a buffer wash step using the running buffer, PBS-T (PBS+0.05% (v/v) Tween 20, pH5.9). […] The test articles with different dilutions were flowed as analyte using single-cycle kinetics strategy. The flow rate of analyte was 50 μL/min with contact time of 45 sec and dissociation time of 180 sec. Surface regeneration was accomplished using PBS-T (PBS+0.05% (v/v) Tween 20, pH7.4) for 120 sec with a flow rate of 30 μL/min after each cycle. Binding constants were determined with the Biacore™ T200 Evaluation software (version 3.0; GE Healthcare). Blank-subtracted sensorgrams were analyzed using steady state affinity fitting model. Binding percentage was calculated from observed Rmax and theoretical Rmax (Rmax/Rmax_ₜₕₑₒ), based on human FcRn capture density.
Description for cynomolgus monkey NaPi2b: (§5) Following transfection, cells were seeded at 50,000 cells/well in conical-bottom 96-well plates and treated with test antibody or antibody-drug conjugate for 24 hours at 4° C. to prevent internalization. […] Following incubation and washing, fluorescence was detected by flow cytometry on a BD LSRFortessa™ Cell Analyzer (BD Biosciences, Franklin Lake, NJ) with 1,000 minimum events collected per well.
Description for mouse NaPi2b: as §5

B1: v38591-MC-GGFG-AM-Compound 139 DAR 8 (antibody, human IgG1, kappa)
heavy: not shown
light: DVQMTQSPSSLSASVGDRVTITCRASQDVYSYLNWYQQKPGKAVKLLIYYTSRLQSGVPSRFSGSGSGTDYTLTISSLQPEDFATYYCQQYNIFPWTFGQGTKLEIKRTVAAPSVFIFPPSDEQLKSGTASVVCLLNNFYPREAKVQWKVDNALQSGNSQESVTEQDSKDSTYSLSSTLTLSKADYEKHKVYACEVTHQGLSSPVTKSFNRGEC
modifications: as above; MC-GGFG-AM-Compound 139 drug-linker on cysteines freed by TCEP reduction; sites not stated; DAR 8
notes: Antibody-drug conjugate of v38591; also called v38593
For B1, the “EC50 (read off the curve)” value is about 0.5 nM with cynomolgus monkey NaPi2b, about 0.6 nM in the test with mouse NaPi2b, about 3 nM in test [1] and about 2 nM in [2].

B2: v40554 (LALA) anti-NaPi2b antibody (antibody)
chain 1: not shown
chain 2: B1 light
Consider B2, for which the Binding percentage with Biotinylated human FcRn is 27%; in test [3] it was 6.4%; in test [4], 63.8%; in test [5], 58%; in test [6] it was 41.5%; in [7], 53.2%. Besides, the Kd in the test with Biotinylated human FcRn was 132 nM; in test [3], 3.79 nM; in test [4] it was 29200 nM; in test [5], 29300 nM; in [6], 4020 nM; in test [7] it was 48700 nM.

B3: v38591-MC-GGFG-AM-Compound 139 DAR 4 (antibody, human IgG1, kappa)
heavy: not shown
light: B1 light
modifications: as above; MC-GGFG-AM-Compound 139 drug-linker on cysteines freed by TCEP reduction; sites not stated; DAR 4
notes: Antibody-drug conjugate of v38591
Take B3: the “EC50 (read off the curve)” value in the test with cynomolgus monkey NaPi2b was about 0.4 nM; in test [8], about 2 nM; in test [1], 2 to 3 nM; in [2], about 2 nM; in test [9] it was about 0.6 nM; in test [10], about 3 nM.

B4: v23855 (parental mouse-human chimeric anti-NaPi2b antibody) (antibody, human IgG1, kappa, V domains shown)
VH: QAYLQQSGAELVRPGASVKMSCKASGFTFTSYNVHWVKQTPRQGLEWIAAISPGNGDLSYNQRFKDKATLTVDRSSSTAYMQLSGLTSEDSAVYFCARGRTGMGAVDYWGQGTSVTVSS
VL: DVQMTQTASSLSASLGDRVTISCRASQDVYSYLNWYQQKPHGTVKLLIYYTSRLQSGVPSRFTGSGSGTDYSLTISNLEPEDIATYYCQQYNIFPWTFGGGTKLEIKR
notes: IgG1/kappa full-size antibody; also called parental chimeric
Regarding B4, the “EC50 (read off the curve)” value in test [11] is about 0.8 nM. In test [12], the “NS-ELISA binding score (signal over buffer well)” value stood at 2.38. For the same molecule, the Kd in [13] was determined as 0.84 nM. In addition, the Bmax in test [14] amounted to 43700.

Broadly, the EC50 (read off the curve) is the concentration needed to bring the measured effect to its halfway point.
